The term Kd denotes the equilibrium constant for the complex coming apart.

Drawing on patent publication US20190218553, this text covers Kd for 1 sequence.

This data set concerns the target von Willebrand factor (VWF) (Homo sapiens) (UniProt P04275). In words: filter. The note with it: mAmCmGmAmAmCmUmGfCfCfCmUmC(6GLY)mGmAfCrGfCmAmCmAmGmAmCmGfUidT (6GLY = hexaethylene glycol linker); Bmax 60%; 2 mM CaCl2, 37 C.

As to ACGAACUGCCCUCGACGCACAGACGU [DTRI-009], the Kd came to 11 nM.
